According to patent US9845340B2, “Peptides that specifically bind HGF receptor (cMet) and uses thereof” (Dyax Corp., priority 2003, dated 2017):

How the values were obtained:
[1] = target: T1, cMet-Fc fusion protein (or similar target) (Mus musculus, UniProt P16056); test: Fluorescence anisotropy / polarization direct binding, mouse cMet; set-up: key: NB = no binding; conditions: fluorescein-labeled peptide
T1 construct: Fc
Description: Fluorescence anisotropy measurements were performed in 384-well microplates in a volume of 10 μL in binding buffer (PBS, 0.01% Tween-20, pH 7.5) using a Tecan Polarion fluorescence polarization plate reader ([…]). The concentration of fluorescein-labeled peptide was held constant (20 nM) and the concentration of cMet-Fc fusion protein (or similar target) was varied. Binding mixtures were equilibrated for 10 minutes in the microplate at 30 C before measurement. The observed change in anisotropy was fit to the equation below via nonlinear regression to obtain the apparent KD. This equation (1) assumes that the synthetic peptide and cMet form a reversible complex in solution with 1:1 stoichiometry.
[formula] where robs is the observed anisotropy, rfree is the anisotropy of the free peptide, rbound is the anisotropy of the bound peptide, KD is the apparent dissociation constant, cMet is the total cMet concentration, and P is the total fluorescein-labeled peptide concentration. KD was calculated in a direct binding assay (KD,B) and therefore these values represent cMet binding to the fluorescein labeled peptide.

cMet-Fc fusion protein [2] = target: T2, cMet-Fc fusion protein (Homo sapiens, UniProt P08581); test: Protein phage ELISA: peptide-displaying phage binding to soluble cMet-Fc versus TRAIL-Fc; conditions: phage isolate; cMet-Fc vs. TRAIL-Fc
Summary of the method: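 Plates coated with 0.5 μg/mL cMet-Fc or, as background, TRAIL-Fc, then blocked with 3% BSA in PBST. Peptide-displaying phage bound 2 h at room temperature. Detection with HRP-anti-M13 antibody.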

[3] = target: T3, 3T3 cells that over-express human cMet (Homo sapiens, UniProt P08581); test: Whole cell ELISA of peptide-displaying phage; format: cell-based; conditions: phage isolate; 3T3 cells expressing human cMet vs. non-expressing 3T3 cells
T3 construct: expressed in transfected cells; host or cells: 3T3 cells
Summary of the method: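 3T3 cells over-expressing human cMet seeded 10^5/well, pelleted and fixed with 0.1% glutaraldehyde 12 min at 37 °C. Blocked peptide-displaying phage bound 1 h at room temperature; after PBST wash, bound phage detected with HRP-conjugated anti-M13 antibody.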

cMet-Fc fusion protein [4] = target: T2, cMet-Fc fusion protein; test: HGF competition protein ELISA; conditions: % of binding in the absence of HGF
Description: This competition ELISA identifies peptides that serve as “HGF antagonistic peptides”, peptides that block HGF-mediated signaling events (e.g., proliferation). These assays were conducted using the peptide-displaying phage discovered from the initial selection and screening campaigns using the first generation peptide libraries. Briefly, 96-well plates were coated overnight at 4 C with 0.5 μg/mL of cMet-Fc fusion protein or TRAIL-Fc fusion protein (background). The plates were blocked for 2 hours at 37 C with 3% BSA in PBST. The plates were washed with PBST, and 100 μL of HGF (either at 100 ng/mL or 500 ng/mL in PBST) was added to each well. The plates were incubated for 30 minutes at room temperature after which the plates were washed with PBST and 70 μL of HGF (143 ng/mL or 714 ng/mL) or 70 μL of PBST was added to the respective wells. This was followed by an addition of 30 μL of peptide-displaying phage overnight culture to each well. The plates were incubated for 2 hours at room temperature, washed with PBST and cMet-binding peptide-displaying phage was detected using an HRP-conjugated anti-M13 antibody.

SK-LMS-1 cells = test: Cellular proliferation assay (HGF-stimulated, BrdU incorporation); format: cell-based; conditions: peptide 10 μM, HGF 50 ng/mL or 100 ng/mL, FIG. 10
Description: Cellular proliferation assays were performed to identify cMet-binding peptides that antagonize HGF-stimulated proliferation. These in vitro studies utilized a leomyosarcoma cell line, SK-LMS-1, in which cells proliferate in response to HGF. SK-LMS-1 cells were seeded on 96-well plates at a density of 2000 cells/well. After a 24 hour incubation at 37 C, the cells were starved in culture media containing 0.1% BSA instead of 10% fetal bovine serum for 36 hours at 37 C. Fresh starvation media with or without a cMet-binding peptide (10 μM) was added to the respective wells and the cells were incubated for 2 hours at 37 C. […] HGF was then added at a concentration of either 50 ng/mL or 100 ng/mL and the cells were incubated for an additional 12 hours at 37 C. Proliferation was assessed by measuring the incorporation of BrdU (Calbiochem, San Diego, Calif.) as described by the manufacturer. Results are shown for SEQ ID NO:365 (FIG. 10).

T1 sequence (P16056 25-306 limits assumed): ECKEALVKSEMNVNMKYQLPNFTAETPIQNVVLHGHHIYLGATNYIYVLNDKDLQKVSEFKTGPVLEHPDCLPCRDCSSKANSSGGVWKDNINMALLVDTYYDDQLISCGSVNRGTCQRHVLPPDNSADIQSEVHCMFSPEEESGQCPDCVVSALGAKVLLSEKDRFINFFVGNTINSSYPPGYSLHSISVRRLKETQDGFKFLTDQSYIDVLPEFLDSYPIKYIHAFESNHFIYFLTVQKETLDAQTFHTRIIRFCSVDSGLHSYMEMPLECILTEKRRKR
T1 sequence (P16056 307-929 limits assumed): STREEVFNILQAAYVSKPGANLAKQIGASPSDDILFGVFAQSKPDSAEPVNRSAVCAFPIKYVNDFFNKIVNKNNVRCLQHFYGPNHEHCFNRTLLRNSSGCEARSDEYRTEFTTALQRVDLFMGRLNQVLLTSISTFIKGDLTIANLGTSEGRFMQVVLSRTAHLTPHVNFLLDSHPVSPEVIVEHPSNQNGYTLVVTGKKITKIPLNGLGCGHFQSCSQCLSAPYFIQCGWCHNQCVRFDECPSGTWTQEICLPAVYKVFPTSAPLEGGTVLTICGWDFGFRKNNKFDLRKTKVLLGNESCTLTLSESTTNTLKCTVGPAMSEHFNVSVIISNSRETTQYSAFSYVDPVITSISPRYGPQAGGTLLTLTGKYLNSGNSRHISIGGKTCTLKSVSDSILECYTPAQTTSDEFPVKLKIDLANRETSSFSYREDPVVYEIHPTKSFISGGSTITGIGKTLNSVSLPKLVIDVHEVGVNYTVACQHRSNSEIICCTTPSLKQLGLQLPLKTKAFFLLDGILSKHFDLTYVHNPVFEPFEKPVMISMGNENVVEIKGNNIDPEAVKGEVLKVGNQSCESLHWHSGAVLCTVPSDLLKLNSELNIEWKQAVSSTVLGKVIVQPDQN
T3 sequence (P08581 25-1390): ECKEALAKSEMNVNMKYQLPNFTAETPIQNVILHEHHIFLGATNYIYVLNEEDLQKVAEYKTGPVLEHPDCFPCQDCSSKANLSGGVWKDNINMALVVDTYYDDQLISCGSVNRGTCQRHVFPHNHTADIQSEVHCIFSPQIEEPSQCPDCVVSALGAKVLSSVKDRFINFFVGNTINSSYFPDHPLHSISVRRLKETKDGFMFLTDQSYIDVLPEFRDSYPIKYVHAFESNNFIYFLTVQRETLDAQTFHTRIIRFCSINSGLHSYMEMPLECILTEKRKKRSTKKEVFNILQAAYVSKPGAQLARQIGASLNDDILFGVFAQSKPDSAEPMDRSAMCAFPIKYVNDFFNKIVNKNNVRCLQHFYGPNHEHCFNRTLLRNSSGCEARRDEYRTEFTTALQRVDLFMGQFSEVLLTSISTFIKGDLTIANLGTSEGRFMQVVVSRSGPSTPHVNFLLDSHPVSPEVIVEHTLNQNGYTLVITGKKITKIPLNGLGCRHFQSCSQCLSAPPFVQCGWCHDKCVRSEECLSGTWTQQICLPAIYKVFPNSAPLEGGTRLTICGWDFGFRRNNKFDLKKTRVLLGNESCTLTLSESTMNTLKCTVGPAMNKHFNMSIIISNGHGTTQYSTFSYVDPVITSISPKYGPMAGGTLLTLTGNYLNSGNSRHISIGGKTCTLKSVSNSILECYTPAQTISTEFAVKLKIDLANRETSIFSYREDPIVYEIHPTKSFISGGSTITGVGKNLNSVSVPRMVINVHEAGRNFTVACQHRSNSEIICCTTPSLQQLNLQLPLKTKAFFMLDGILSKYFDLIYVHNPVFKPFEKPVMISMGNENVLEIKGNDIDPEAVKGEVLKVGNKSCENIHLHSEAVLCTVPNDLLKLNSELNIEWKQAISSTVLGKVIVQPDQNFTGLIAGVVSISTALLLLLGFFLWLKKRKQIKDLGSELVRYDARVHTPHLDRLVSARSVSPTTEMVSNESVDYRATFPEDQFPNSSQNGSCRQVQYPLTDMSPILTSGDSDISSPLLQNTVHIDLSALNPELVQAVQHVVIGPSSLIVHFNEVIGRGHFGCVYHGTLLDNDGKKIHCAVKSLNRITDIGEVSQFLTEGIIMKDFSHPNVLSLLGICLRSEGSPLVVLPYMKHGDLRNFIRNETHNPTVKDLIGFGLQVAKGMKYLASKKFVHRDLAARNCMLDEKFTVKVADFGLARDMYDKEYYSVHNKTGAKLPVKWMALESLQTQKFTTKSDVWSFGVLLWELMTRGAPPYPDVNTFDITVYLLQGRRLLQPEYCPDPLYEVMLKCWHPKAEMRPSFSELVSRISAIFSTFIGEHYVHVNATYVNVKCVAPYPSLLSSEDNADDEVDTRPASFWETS
T2 sequence (P08581 25-307 limits assumed): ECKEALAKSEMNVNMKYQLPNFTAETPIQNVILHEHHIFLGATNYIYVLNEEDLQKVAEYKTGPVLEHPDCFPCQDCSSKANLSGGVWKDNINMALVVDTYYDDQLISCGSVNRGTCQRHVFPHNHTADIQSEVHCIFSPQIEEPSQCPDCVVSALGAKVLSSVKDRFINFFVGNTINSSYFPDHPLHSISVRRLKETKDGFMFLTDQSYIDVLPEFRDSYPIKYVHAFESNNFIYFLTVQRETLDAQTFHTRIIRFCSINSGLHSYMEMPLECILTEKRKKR
T2 sequence (P08581 with tags, fused parts or gaps limits assumed): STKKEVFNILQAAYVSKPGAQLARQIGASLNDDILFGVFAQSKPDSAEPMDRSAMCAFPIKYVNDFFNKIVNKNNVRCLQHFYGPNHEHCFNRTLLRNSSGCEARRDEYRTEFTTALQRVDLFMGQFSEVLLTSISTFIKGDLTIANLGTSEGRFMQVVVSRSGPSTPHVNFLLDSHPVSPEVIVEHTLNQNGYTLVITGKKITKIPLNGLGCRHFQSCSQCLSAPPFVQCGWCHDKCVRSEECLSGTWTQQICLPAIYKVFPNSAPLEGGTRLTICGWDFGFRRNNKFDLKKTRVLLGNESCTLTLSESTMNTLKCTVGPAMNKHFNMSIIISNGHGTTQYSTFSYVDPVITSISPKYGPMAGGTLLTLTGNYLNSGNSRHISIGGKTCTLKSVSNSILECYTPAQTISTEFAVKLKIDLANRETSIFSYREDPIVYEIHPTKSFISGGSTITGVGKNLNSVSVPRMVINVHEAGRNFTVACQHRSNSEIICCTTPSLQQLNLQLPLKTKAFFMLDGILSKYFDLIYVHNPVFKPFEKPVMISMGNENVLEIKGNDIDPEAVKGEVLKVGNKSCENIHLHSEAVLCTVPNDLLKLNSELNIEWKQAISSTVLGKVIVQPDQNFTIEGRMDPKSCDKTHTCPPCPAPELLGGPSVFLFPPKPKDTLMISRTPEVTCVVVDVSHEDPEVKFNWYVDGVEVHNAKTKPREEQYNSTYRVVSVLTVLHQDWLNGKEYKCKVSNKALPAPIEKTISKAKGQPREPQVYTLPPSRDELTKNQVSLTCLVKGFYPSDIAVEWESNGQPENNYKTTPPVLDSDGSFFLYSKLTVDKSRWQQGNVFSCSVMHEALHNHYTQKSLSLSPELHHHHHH

Row | Molecule | Kd (mouse) [1] | Protein ELISA (cMet-Fc fusion protein [2]) [fold over background] | WC ELISA [3] [fold over background] | HGF 100 ng/mL (cMet-Fc fusion protein [4]) | HGF 500 ng/mL (cMet-Fc fusion protein [4]; HGF 500 ng/mL) [%] | growth inhibitory properties (HGF-stimulated proliferation) (SK-LMS-1 cells)
1 | CSCC[C@@H]1NC(=O)[C@@H](NC(=O)[C@H](CCSC)NC(=O)[C@H](CCC(=O)O)NC(=O)[C@@H]2CCCN2C(=O)[C@H](CO)NC(=O)CNC(C)=O)CSSC[C@@H](C(=O)N[C@@H](CC(N)=O)C(=O)N[C@@H](Cc2c[nH]cn2)C(=O)N[C@@H](Cc2c[nH]cn2)C(=O)N[C@@H](C)C(=O)N2CCC[C@H]2C(=O)NCC(=O)NCC(=O)NCC(=O)N[C@@H](CCCCNC(=O)c2ccc3c(c2)C(=O)OC32c3ccc(O)cc3Oc3cc(O)ccc32)C(N)=O)NC(=O)[C@@H]2CCCN2C(=O)[C@H](Cc2ccc(O)cc2)NC(=O)[C@H](CC(C)C)NC(=O)[C@H](Cc2ccccc2)NC(=O)[C@@H]2CCCN2C(=O)[C@H](Cc2ccccc2)NC(=O)[C@H](CCSC)NC1=O [SEQ ID NO: 369] | NB | – | – | – | – | –
2 | CC[C@H](C)[C@@H]1NC(=O)[C@H](CCCNC(=N)N)NC(=O)[C@H](Cc2c[nH]c3ccccc23)NC(=O)[C@@H](NC(=O)[C@@H]2CCCN2C(=O)[C@H](Cc2ccccc2)NC(=O)[C@H](Cc2ccccc2)NC(=O)[C@H](CO)NC(=O)CNC(C)=O)CSSC[C@@H](C(=O)N[C@@H](Cc2c[nH]cn2)C(=O)N[C@@H](C)C(=O)N[C@@H](CC(N)=O)C(=O)N[C@@H](C)C(=O)N2CCC[C@H]2C(=O)NCC(=O)NCC(=O)NCC(=O)N[C@@H](CCCCNC(=O)c2ccc3c(c2)C(=O)OC32c3ccc(O)cc3Oc3cc(O)ccc32)C(N)=O)NC(=O)[C@H](Cc2ccc(O)cc2)NC(=O)CNC(=O)[C@H](Cc2ccccc2)NC(=O)[C@H](CCCNC(=N)N)NC(=O)[C@H](CC(=O)O)NC1=O [SEQ ID NO: 370] | NB | 13.3 | 1.87 | – | – | –
3 | CC(=O)NCC(=O)N[C@@H](CC(=O)O)C(=O)N[C@@H](Cc1ccc(O)cc1)C(=O)N[C@@H](CO)C(=O)N[C@@H](CCC(=O)O)C(=O)N[C@H]1CSSC[C@@H](C(=O)N[C@@H](Cc2ccc(O)cc2)C(=O)N[C@@H](CC(=O)O)C(=O)N[C@@H](CCCNC(=N)N)C(=O)N[C@@H](CC(=O)O)C(=O)N2CCC[C@H]2C(=O)NCC(=O)NCC(=O)NCC(=O)N[C@@H](CCCCNC(=O)c2ccc3c(c2)C(=O)OC32c3ccc(O)cc3Oc3cc(O)ccc32)C(N)=O)NC(=O)[C@H](CCCCN)NC(=O)[C@H](C(C)C)NC(=O)[C@H](CCC(=O)O)NC(=O)[C@H](Cc2ccccc2)NC(=O)[C@H](CO)NC(=O)[C@H](CC(=O)O)NC(=O)[C@@H]2CCCN2C(=O)[C@H](CCC(=O)O)NC(=O)[C@H](Cc2ccccc2)NC(=O)[C@H](Cc2ccccc2)NC1=O [SEQ ID NO: 399] | NB | 11.3 | 1.30 | – | – | –
4 | AGWYNCSGENFWNCKWIGT (Synthetically generated cMet-binding peptide sequence) [SEQ ID NO: 082] | – | 14.3 | 1.43 | 61% | 79 | –
5 | GSILYCINRNDPQCPYTAP (Synthetically generated cMet-binding peptide sequence) [SEQ ID NO: 101] | – | 3.0 | 1.27 | 9S% | – | –
6 | GSSQICAVYLDDTHNCERHAP (Synthetically generated cMet-binding peptide sequence) [SEQ ID NO: 373] | – | 4.0 | 1.30 | – | – | –
7 | GSSTICPGTACVDHAP (Synthetically generated cMet-binding peptide sequence) [SEQ ID NO: 008] | – | 3.2 | 1.27 | – | – | –
8 | GSTKVCHEKWNQLFCHNQAP (Synthetically generated cMet-binding peptide sequence) [SEQ ID NO: 368] | – | 7.0 | 1.27 | – | – | –
9 | GSTMSCWRWGRDAYSCNQMAP (Synthetically generated cMet-binding peptide sequence) [SEQ ID NO: 372] | – | 4.6 | 1.37 | – | – | –
10 | GSWRFCGGEYSFQVCQDVAP (Synthetically generated cMet-binding peptide sequence) [SEQ ID NO: 365] | – | 26.3 | 1.33 | – | – | growth inhibitory properties
11 | GSYYDCREFQCNKPAP (Synthetically generated cMet-binding peptide sequence) [SEQ ID NO: 002] | – | 4.4 | 1.33 | – | – | –
